B1: CT120 antibody (antibody, V domains shown)
VH: QVQLVQSGAEVKMPGSSVKVSCKTSGVFFSSHAISWVRQAPGQGLEWMGGISPMFGTTHYAQKFQGRVTITADQSTTTAYMELTSLTSEDTAVYYCARDGAGSYYPLNWFDPWGQGTLVTVSS
VL: EIVLTQSPATLSLSPGERATLSCRASENIWNNLAWYQQKPGQAPRLLISGASTGATGVPSRFRGSGSRTEFTLTISSLQSEDFAIYFCQQYNSWPRTFGPGTKVEIKR
B2: CT104 antibody (antibody, V domains shown)
VH: QVQLVQSGAEVKKPGSSVKVSCKASGGTLNNYAISWVRQAPGQGLEWMGGISPIFGTLNYAERFQGRVTITADVFTNTVYMELSSLRSEDTAVYFCARGCGYNCYYFDGWGQGTLVTVSS
VL: EIVLTQSPGTLSLSPGERATLSCRASQSLSSSSLVWYQQKPGQAPRLLIYGASSRATGIPDRFSGSGSGTDFTLTISRLEPEDFAVYYCQQYGNSPYTFGQGTQVEIKR
B3: CT123 antibody (antibody, V domains shown)
VH: QVQLVESGGGVVQPGRSLRLSCAASGFTFSRFGIHWVRQAPGKGLEWMAVIWYDGSNKFYADSVKGRFTISRDNSKNTVYLQMNSLRAEDTAVYYCAKDSRGYCSSIICFEGGLDNWGQGTLVTVSS
VL: ETVLTQSPGTLSLSPGERATLSCRASQSVSISYLAWYQRKPGQAPRLLIYGASRRATGIPDRFSGSGSGTDFTLTISRLEPEDFAVYYCQQYGSSPYTFGQGTKLEIKR

Key:
Assay in all cases: cell-based or functional assay
[1] = biological target: T1, HA of influenza A virus H1N1 A/Texas/05/2009-RG15 (pandemic), on virus (influenza A virus H1N1 …)
[2] = biological target: T2, HA of influenza A virus H1N1 A/New York/18/2009-RG18 (pandemic), on virus (influenza A virus H1N1 (A/New …))
[3] = biological target: HA of influenza A virus H1N1 A/Solomon Islands/3/2006 (seasonal), on virus (influenza A virus H1N1 (A/Solomon …))
[4] = biological target: HA of influenza A virus H1N1 A/Ohio/83 (seasonal), on virus (influenza A virus H1N1 (A/Ohio/83))
[5] = biological target: HA of influenza A virus H2N2 A/Ann Arbor/6/60 ca, on virus (influenza A virus H2N2 (A/Ann …))
[6] = biological target: HA of influenza A virus H5N1 A/Vietnam/1203/04, on virus (influenza A virus H5N1 …)
[7] = biological target: HA of influenza A virus H5N1 A/Anhui/1/05, on virus (influenza A virus H5N1 (A/Anhui/1/05))
[8] = biological target: HA of influenza A virus H3N2 A/Wisconsin/67/2005, on virus (influenza A virus H3N2 …)
[9] = biological target: T1, HA of influenza A virus H1N1 …; remark: listed apart in the source
[10] = biological target: T2, HA of influenza A virus H1N1 A/New …; remark: listed apart in the source
[11] = biological target: T1, HA of influenza A virus H1N1 …; remark: listed apart in the source
[12] = biological target: T2, HA of influenza A virus H1N1 A/New …; remark: listed apart in the source

Binder | MN assay: lowest antibody concentration at which no virus antigen was detected [1] [µg/mL] | MN assay: lowest antibody concentration at which no virus antigen was detected [2] [µg/mL] | MN assay: lowest antibody concentration at which no virus antigen was detected [3] [µg/mL] | MN assay: lowest antibody concentration at which no virus antigen was detected [4] [µg/mL] | MN assay: lowest antibody concentration at which no virus antigen was detected [5] [µg/mL] | MN assay: lowest antibody concentration at which no virus antigen was detected [6] [µg/mL] | MN assay: lowest antibody concentration at which no virus antigen was detected [7] [µg/mL] | MN assay: lowest antibody concentration at which no virus antigen was detected [8] [µg/mL] | Antibody concentration* (neutralizing antibody concentration) [9] [µg/mL] | IC50 of neutralizing activity [9] [µg/mL] | Antibody concentration* (neutralizing antibody concentration) [10] [µg/mL] | IC50 of neutralizing activity [10] [µg/mL] | Hemagglutination-inhibition test: hemagglutination inhibition end point [11] [µg/mL] | Hemagglutination-inhibition test: hemagglutination inhibition end point [12] [µg/mL]
B1 | 0.313 | 0.313 | 0.625 | 0.156 | 2.5 | 1.25 | 0.625 | > 10 | 0.156 | 0.15 | 0.313 | 0.31 | > 20 | > 20
B2 | 0.313 | 0.625 | 0.625 | 0.313 | > 10 | 1.25 | 0.625 | > 10 | 0.313 | 0.29 | 1.25 | 0.56 | > 20 | > 20
B3 | 0.313 | 0.625 | 1.25 | 0.313 | > 10 | > 10 | > 10 | > 10 | 0.625 | 0.068 | 1.25 | 0.29 | > 20 | > 20

From US20130004505A1 (CELLTRION, published 2013)
